{"source": "patent US20260207707A1", "about": "(UNIVERSITY OF CHICAGO, published 2026)", "binders": {"B1": {"name": "neutrophil elastase (ELANE) (protein)", "chain": "IVGGRRARPHAWPFMVSLQLRGGHFCGATLIAPNFVMSAAHCVANVNVRAVRVVLGAHNLSRREPTRQVFAVQRIFENGYDPVNLLNDIVILQLNGSATINANVQVAQLPAQGRRLGNGVQCLAMGWGLLGRNRGIASVLQELNVTVVTSLCRRSNVCTLVRGRQAGVCFGDSGSPLVCNGLIHGIASFVRGGCASGLYPDAFAPVAQFVNWIDSIIQ"}, "B2": {"name": "eosinophil cationic protein (ECP) (other, human, UniProt P12724 28-160, looked up)", "chain": "RPPQFTRAQWFAIQHISLNPPRCTIAMRAINNYRWRCKNQNTFLRTTFANVVNVCGNQSIRCPHNRTLNNCHRSRFRVPLLHCDLINPGAQNISNCTYADRPGRRFYVVACDNRDPRDSPRYPVVPVHLDTTI", "notes": "Identified by proteomics in media conditioned by human PMNs"}}, "key": {"[1]": {"molecular_target": "T1, eosinophil cationic protein (ECP), P12724", "T1 chain": "B2 chain"}, "[2]": {"molecular_target": "T2, recombinant human C-terminal CD95 (aa 212-335)", "T2 chain": "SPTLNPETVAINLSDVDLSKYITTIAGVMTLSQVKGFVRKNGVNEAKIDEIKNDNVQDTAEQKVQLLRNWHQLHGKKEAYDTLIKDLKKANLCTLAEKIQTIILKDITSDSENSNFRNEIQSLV"}, "[3]": {"molecular_target": "T3, recombinant human N-terminal CD95 (aa 1-173)", "T3 chain": "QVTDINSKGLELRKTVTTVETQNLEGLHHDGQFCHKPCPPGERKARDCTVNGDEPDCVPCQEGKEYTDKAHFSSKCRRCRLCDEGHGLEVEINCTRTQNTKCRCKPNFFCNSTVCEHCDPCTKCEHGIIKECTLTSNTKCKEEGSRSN"}, "[4]": {"molecular_target": "recombinant peptide corresponding to aa 214-231 of human CD95"}, "[5]": {"molecular_target": "recombinant peptide corresponding to aa 317-335 of human CD95"}, "[6]": {"molecular_target": "T4, neutrophil elastase (ELANE) (human, UniProt P08246 30-247, limits assumed)", "T4 construct": "Purified ELANE; In the co-immunoprecipitation it is the native protein in human PMN media; also called human ELANE", "T4 sequence (looked up)": "B1 chain", "test": "enzyme kinetics: ELANE (10 nM) chromogenic substrate activity with ECP 0-180 nM, curve fitting", "method": "Catalytic activity was measured using the chromogenic substrate N-Methoxysuccinyl-Ala-Ala-Pro-Val p-nitroanilide (Sigma, 100 μg/mL) according to manufacturer's protocol. Absorbance was measured at 405 nm using an accuSkan GO UV/Vis microplate spectrophotometer (ThermoFisher Scientific). […] Residual PMSF was eliminated with a PD-10 desalting column (GE Healthcare Life)."}}, "data": [{"binder": "B1", "values": [{"measurement": "catalytic turnover (kcat) of ELANE", "setting": "[1]", "value": "increases its catalytic turnover (kcat) by ~12-fold"}, {"measurement": "cleavage of recombinant protein (SDS-PAGE, Coomassie blue)", "setting": "[2]", "value": "ELANE preferentially cleaved the C-terminal domain"}, {"measurement": "cleavage of recombinant protein (SDS-PAGE, Coomassie blue)", "setting": "[3]", "value": "ELANE preferentially cleaved the C-terminal domain"}, {"measurement": "cleavage of peptide monitored by mass spectrometry", "setting": "[4]", "value": "studies with synthetic peptides validated these findings"}, {"measurement": "cleavage of peptide monitored by mass spectrometry", "setting": "[5]", "value": "studies with synthetic peptides validated these findings"}]}, {"binder": "B2", "values": [{"measurement": "Kd", "setting": "[6]", "value": 17, "unit": "nM"}]}]}
